Test results reported in the supplement of paper PMC9233669.
This sample holds only a part of the variants without activity.

Experiments:
[1] = system: biotinyl-Phe-oxazolone; assay: self-aminoacylation, catalytic enhancement (BFO) (fold over background); higher = more active; k-Seq, kA / k0A0; sequences stand for … in GGGAAUGGAUCCACAUCUACGAAUUC…UUCACUGCAGACUUGACGAAGCUG
In short: (§1)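 Each biotinyl-aminoacyl-oxazolone, at 2–1250 μM, was incubated with mutagenized RNA pools (0.43 μM) carrying a 21-nt variable region. The 50 μL reactions contained HEPES/NaCl/KCl/MgCl2/CaCl2 buffer with 5% acetonitrile at pH 6.9–7.0 and ran for 90 minutes at room temperature. After streptavidin capture, RNA was measured by qPCR in triplicate and by Illumina sequencing, and catalytic enhancement was calculated as median kA over the uncatalyzed rate from a pseudo-first-order fit of per-sequence fraction reacted.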

[2] = system: biotinyl-Ile-oxazolone; assay: self-aminoacylation, catalytic enhancement (BIO) (fold over background); higher = more active; k-Seq, kA / k0A0; sequences stand for … in GGGAAUGGAUCCACAUCUACGAAUUC…UUCACUGCAGACUUGACGAAGCUG
In short: as §1

[3] = system: biotinyl-Met-oxazolone; assay: self-aminoacylation, catalytic enhancement (BMO) (fold over background); higher = more active; k-Seq, kA / k0A0; sequences stand for … in GGGAAUGGAUCCACAUCUACGAAUUC…UUCACUGCAGACUUGACGAAGCUG
In short: as §1

[4] = system: biotinyl-Val-oxazolone; assay: self-aminoacylation, catalytic enhancement (BVO) (fold over background); higher = more active; k-Seq, kA / k0A0; sequences stand for … in GGGAAUGGAUCCACAUCUACGAAUUC…UUCACUGCAGACUUGACGAAGCUG
In short: as §1

[5] = system: biotinyl-Leu-oxazolone; assay: self-aminoacylation, catalytic enhancement (BLO) (fold over background); higher = more active; k-Seq, kA / k0A0; sequences stand for … in GGGAAUGGAUCCACAUCUACGAAUUC…UUCACUGCAGACUUGACGAAGCUG
In short: as §1

[6] = system: biotinyl-Trp-oxazolone; assay: self-aminoacylation, catalytic enhancement (BWO) (fold over background); higher = more active; k-Seq, kA / k0A0; sequences stand for … in GGGAAUGGAUCCACAUCUACGAAUUC…UUCACUGCAGACUUGACGAAGCUG
In short: as §1

Sequence	self-aminoacylation [1]	self-aminoacylation [2]	self-aminoacylation [3]	self-aminoacylation [4]	self-aminoacylation [5]	self-aminoacylation [6]
GUUACCCUGAUCAUCGAGUGA [Fam2.1 aminoacylation ribozyme variant]	32.3	3.61	8.85	4.23	9.43	11.1
GAGUUUGCGAAUAGUCGCAAG [Fam3.1 aminoacylation ribozyme variant]	7.65	1.68	1.8	1.56	1.76	2.35
AUUAUACUGGUCAUCGAGUGA [Fam2.1 aminoacylation ribozyme variant]	6.45	2.91	4.91	2.56	5.28	5.99
CCACACUUCAAGCCAUCGGUA [Fam1B.1 aminoacylation ribozyme variant]	0.774	1.53	1.7	1.4	1.88	1.05
AAGUUUUCUAAGAGUCGCAAG [Fam3.1 aminoacylation ribozyme variant]	3.16	1.65	1.32	1.62	1.62	1.51
AAGUUUGCUUAUAGUCGCUAG [Fam3.1 aminoacylation ribozyme variant]	1	0.884	0.705	0.646	0.628	0.61
AUUCACCGAUGUCAUCGGGUG [Fam2.2 aminoacylation ribozyme variant]	62.7	5.59	8.67	4.63	10.8	7.35
AUUCACCUGGGUCACCGGGUG [Fam2.2 aminoacylation ribozyme variant]	22.4	3.43	4.54	2.97	5.41	5.36
AUUACCCUGAUCAUCGAGGGA [Fam2.1 aminoacylation ribozyme variant]	0.999	1.09	1.02	1.21	1.87	2.33
CUACUUCAAACAAUUGGUGUG [Fam1A.1 aminoacylation ribozyme variant]	1.52	1.19	1.24	1.12	1.62	1.23
AUUGACCUAGGUCAUCGUGUG [Fam2.2 aminoacylation ribozyme variant]	4.26	1.36	1.04	1.18	1.36	1.35
CUACUUCAAAAAAGCGGUCUG [Fam1A.1 aminoacylation ribozyme variant]	0.451	0.999	1.02	0.801	0.966	0.633
AUUCACCUAGGUCAGCGGGUG [Fam2.2 aminoacylation ribozyme variant]	29.1	3.3	4.39	3.2	5.95	4.21
CUACUUCAAACAAUAGGGCUG [Fam1A.1 aminoacylation ribozyme variant]	0.8	0.844	0.557	0.631	0.523	0.391
AUUCACCUAGGUCAUGGAGUG [Fam2.2 aminoacylation ribozyme variant]	7.91	2.31	3.29	2.49	4.09	3.68
AGGUUUGCUAAUAGUCGCGAG [Fam3.1 aminoacylation ribozyme variant]	2.48	1.56	1.65	1.78	1.61	2.59
AUUACGCUAGUCAUCGAGUGA [Fam2.1 aminoacylation ribozyme variant]	2.19	2.48	3.01	2.47	3.48	3.63
AUUCACAUAGGUCAUCGGCUG [Fam2.2 aminoacylation ribozyme variant]	7.68	1.72	1.64	1.78	1.61	1.89
CCACACAUCAAACAAUCGGUC [Fam1B.1 aminoacylation ribozyme variant]	3.04	0.795	0.715	0.92	0.749	1.92
CUCCUUCAAACAAUCGGUCUG [Fam1A.1 aminoacylation ribozyme variant]	59.2	1.1	1.29	1.2	2.04	32.3
CUACUUUUAACAAUCGGUCUG [Fam1A.1 aminoacylation ribozyme variant]	0.864	0.888	0.921	0.802	0.713	0.516
AUUAGCCUGGUCAUAGAGUGA [Fam2.1 aminoacylation ribozyme variant]	18.4	2.96	4.83	3.18	5.43	7.07
AUUCACGUAGGUGAUCGGGUG [Fam2.2 aminoacylation ribozyme variant]	20.3	2.91	3.98	3.52	4.12	3.33
AUUAACCUGGUCAUCGAGUGU [Fam2.1 aminoacylation ribozyme variant]	5.48	2.33	3.72	2.61	4.39	4.67
CUACCUCAAACAAUCGGUCGG [Fam1A.1 aminoacylation ribozyme variant]	1.56	1.28	1.5	1.25	1.55	1.78
AUCCACCUAGAUCAUCGGGUG [Fam2.2 aminoacylation ribozyme variant]	23.2	3.37	3.25	3.26	4.88	4.45

Sequence	self-aminoacylation [1]	self-aminoacylation [2]	self-aminoacylation [3]	self-aminoacylation [4]	self-aminoacylation [5]	self-aminoacylation [6]
AUACACCUAGGUCAUCGGAUG [Fam2.2 aminoacylation ribozyme variant]	0.387	1.03	0.978	0.946	0.994	0.96
AAGUUUGCUGAUAGUCGUAAG [Fam3.1 aminoacylation ribozyme variant]	0.944	0.854	0.951	0.93	0.674	0.823
AUACACCUAAGUCAUCGGGUG [Fam2.2 aminoacylation ribozyme variant]	28.8	3.47	4.44	2.91	5.83	4.14
AAGAUUGCUAAUAGUCGCAUG [Fam3.1 aminoacylation ribozyme variant]	1.36	1.68	1.45	1.39	1.91	1.46
ACACACUUCAAUCAAUCGGUC [Fam1B.1 aminoacylation ribozyme variant]	29.4	1.59	1.39	1.53	1.74	19.8
AAUACCCGGGUCAUCGAGUGA [Fam2.1 aminoacylation ribozyme variant]	34.7	3.72	5.22	3.64	6.7	7.23
CUUCUUCAAACAAUCGGUCGG [Fam1A.1 aminoacylation ribozyme variant]	10.9	0.873	1.12	0.789	1.24	7.44
AUUCACCUACGUCAGCGGGUG [Fam2.2 aminoacylation ribozyme variant]	31.4	2.95	4.72	2.71	6.17	4.14
AUUACCCUGGUGAUCGAAUGA [Fam2.1 aminoacylation ribozyme variant]	0.432	0.957	0.846	1.09	1.02	0.949
AAGUUUGCAAAUAGUCGCAAA [Fam3.1 aminoacylation ribozyme variant]	0.845	1.67	1.52	1.62	1.79	1.21
CCACACUCCAAGCAAUCGGUA [Fam1B.1 aminoacylation ribozyme variant]	0.936	1.15	0.699	1.34	1.27	1.25
AUUCGCCUAGGUCAUCGGGUU [Fam2.2 aminoacylation ribozyme variant]	75.6	8.6	14.1	7.13	20.5	10.8
AUCCACCUAGGGCAUCGGGUG [Fam2.2 aminoacylation ribozyme variant]	22.1	3.45	4.46	4.02	5.15	4.35
CUGCUUCAAACAAUCGGUAUG [Fam1A.1 aminoacylation ribozyme variant]	75.4	1.29	1.56	1.33	2.5	40.2
AUUCAGCUAGGUCAUCCGGUG [Fam2.2 aminoacylation ribozyme variant]	44.2	5.29	6.6	5.44	8.88	8.08
UUUACCGUGGUCAUCGAGUGA [Fam2.1 aminoacylation ribozyme variant]	17.7	3.2	5.63	3.63	5.18	7.07
AUUCACCUACGGCAUCGGGUG [Fam2.2 aminoacylation ribozyme variant]	22.2	2.29	2.91	2.7	3.86	3.22
CUUACCCUGGUCCUCGAGUGA [Fam2.1 aminoacylation ribozyme variant]	28.8	2.44	5.36	3.36	4.96	5.89
AUUACCCUGGUCCUCGAGUGA [Fam2.1 aminoacylation ribozyme variant]	6.54	2.07	3.43	2.24	3.55	3.77
AAGUUUGCUUAGAGUCGCAAG [Fam3.1 aminoacylation ribozyme variant]	0.969	0.725	0.757	0.785	0.592	1
CAGUUUGCUAAUAGUCGCAAG [Fam3.1 aminoacylation ribozyme variant]	2.94	1.36	1.28	1.21	1.35	1.55
CCACACUGCAAGCAAUCGGCC [Fam1B.1 aminoacylation ribozyme variant]	20.5	3.29	2.93	5.56	1.99	3.9
AAGUUUGCUUAUAGUCGCCAG [Fam3.1 aminoacylation ribozyme variant]	0.665	1.08	0.883	0.955	0.933	1.08
AAGUAUGCUAAUAGUCUCAAG [Fam3.1 aminoacylation ribozyme variant]	8.35	1.43	1.55	1.31	1.6	2.69
AUUACACCGGUCAUCGAGUGA [Fam2.1 aminoacylation ribozyme variant]	29.4	2.95	5.76	2.96	6.36	5.95
